Results as given in patent US11813311B2, “Treatment and prevention of metabolic diseases” (Singapore Health Services PTE LTD., priority 2019, dated 2023).

Key:
mouse Il11ra1 = biological target: T1, mouse Il11ra1 (Mus musculus, UniProt Q64385); assay: Binding of X209 to mouse Il11ra1 (Octet); conditions: Octet system
T1 sequence (Q64385 24-432): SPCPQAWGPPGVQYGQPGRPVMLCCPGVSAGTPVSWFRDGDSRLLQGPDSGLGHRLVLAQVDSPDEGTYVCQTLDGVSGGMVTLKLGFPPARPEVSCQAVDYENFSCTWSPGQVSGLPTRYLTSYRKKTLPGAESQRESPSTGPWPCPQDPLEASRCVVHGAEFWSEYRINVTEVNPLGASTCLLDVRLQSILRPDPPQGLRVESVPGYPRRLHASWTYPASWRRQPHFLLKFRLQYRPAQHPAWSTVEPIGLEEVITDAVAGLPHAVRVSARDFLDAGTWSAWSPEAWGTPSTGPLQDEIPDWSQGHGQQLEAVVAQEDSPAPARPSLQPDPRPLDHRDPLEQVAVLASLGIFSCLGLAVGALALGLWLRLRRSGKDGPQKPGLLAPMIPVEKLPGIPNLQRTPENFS
Method: Binding of X209 to human IL11RA was measured on Biacore T200 (GE Healthcare). X209 was immobilized onto an anti-mouse capture chip. Interaction assays were performed with HEPES-buffered saline pH 7.4 containing 0.005% P20 and 0.5% BSA. A concentration range (1.56 nM to 100 nM) of the analyte (human IL11 RA) was injected over X209 and reference surfaces at a flow rate of 40 μl min^−1. Binding to mouse Il11ra1 was confirmed on Octet system (ForteBio) using a similar strategy. All sensograms were aligned and double-referenced^4. Affinity and kinetic constants were determined by fitting the corrected sensorgrams with 1:1 Langmuir model. The equilibrium binding constant KD was determined by the ratio of kd/ka.

[1] = system: primary human hepatocytes; assay: Palmitate loading (lipotoxicity) of primary human hepatocytes; format: cell-based
Method: Palmitate:BSA conjugated solution in the ratio of 6:1 was prepared as described earlier (Alsabeeh et al., 2018). Palmitate (0.5 mM) conjugated in fatty acids free BSA was used to treated cells as described in figure legends; 0.5% BSA solution was used as control. […]
Primary human hepatocytes were seeded on 8-well chamber slides (1×10^4 cells/well). For this experiment, cells were not serum-starved prior to palmitate treatment. 24 hours following palmitate stimulation, cells were washed, incubated with 25 μM of DCFDA solution (ab113851, Abcam) for 45 minutes at 37° C. in the dark, and rinsed with dilution buffer according to the manufacturer's protocol. Live cells with positive DCF staining were imaged with filter set appropriate for fluorescein (FITC) using a fluorescence microscope (Leica). […]
Western blots were carried out on total protein extracts from hepatocytes and liver tissues. Hepatocyte and liver tissue lysates were homogenized in RIPA Lysis and Extraction Buffer (89901, Thermo Scientific) containing protease and phosphatase inhibitors (Roche). Protein lysates were separated by SDS-PAGE and transferred to PVDF membranes. Protein bands were visualized using the ECL detection system (Pierce) with the appropriate secondary antibodies: anti-rabbit HRP or anti-mouse HRP.

Binding to mouse Il11ra1 (mouse Il11ra1): confirmed
B1: X209: mouse anti-mouse IL-11Rα IgG (IgG1κ), neutralising; VH SEQ ID NO:24, VL SEQ ID NO:25 (antibody, V domains shown)
VH: QVQLQQPGAELVRPGSSVKLSCKASGYTFTNYWMHWLKQRPVQGLEWIGNIGPSDSKTHYNQKFKDKATLTVDKSSSTAYMQLNSLTSEDSAVYYCARGDYVLFTYWGQGTLVTVSA
VL: DIVLTQSPATLSLSPGERATLSCRASQSISNNLHWYQQKSHEAPRLLIKYASQSISGIPARFSGSGSGTDFTLSFSSLETEDFAVYFCQQSYSWPLTFGQGTKLEIK
modifications: Enx209 VH; Enx209 VL
palmitate-induced signaling events ([1]; Western blot): largely inhibited | secretion of cytokines (IL11, IL6, CCL2, CCL5) ([1]; X209 2 μg/ml or sgp130 1 μg/ml): reduced the secretion of all cytokines | NOX4 upregulation by palmitate ([1]; palmitate): inhibited | caspase3 activation ([1]; palmitate): largely inhibited | fatty acid synthase (FASN) upregulation ([1]; palmitate): largely inhibited | triglyceride accumulation ([1]; palmitate): largely inhibited | ROS production ([1]; sFA-loaded hepatocytes): prevent ROS production | glutathione (GSH) levels ([1]; sFA-loaded hepatocytes): partial restoration
